Test [1] addresses T1, human CEACAM5 (human, UniProt P06731 35-685).
T1 construct: whole, on cells; Target on MKN-45 (DSMZ ACC409) and LS180 (ATCC CL-187) cells; also called carcinoembryonic antigen-related cell adhesion molecule 5; CD66e
T1 sequence (looked up): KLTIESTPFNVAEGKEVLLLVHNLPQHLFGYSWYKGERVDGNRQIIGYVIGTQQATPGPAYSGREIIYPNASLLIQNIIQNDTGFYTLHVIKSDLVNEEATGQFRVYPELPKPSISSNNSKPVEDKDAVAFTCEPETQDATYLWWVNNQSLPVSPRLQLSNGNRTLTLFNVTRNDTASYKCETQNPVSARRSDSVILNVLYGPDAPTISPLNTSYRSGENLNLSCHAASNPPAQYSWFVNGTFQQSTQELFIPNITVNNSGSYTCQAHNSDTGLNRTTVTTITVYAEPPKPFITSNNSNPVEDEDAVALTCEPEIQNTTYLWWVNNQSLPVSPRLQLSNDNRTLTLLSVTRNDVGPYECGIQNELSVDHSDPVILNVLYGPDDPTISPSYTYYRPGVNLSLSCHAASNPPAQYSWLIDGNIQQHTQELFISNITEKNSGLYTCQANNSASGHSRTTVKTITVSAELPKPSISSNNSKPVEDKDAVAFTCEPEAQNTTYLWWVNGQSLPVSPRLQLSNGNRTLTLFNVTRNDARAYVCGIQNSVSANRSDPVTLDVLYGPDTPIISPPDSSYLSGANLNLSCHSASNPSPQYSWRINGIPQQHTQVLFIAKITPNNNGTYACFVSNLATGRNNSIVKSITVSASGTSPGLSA
Description: FACS on MKN-45 cells expressing human CEACAM5. As to the method: 10 μl of a 1×10⁴ MKN-45 (DSMZ ACC409) cell suspension in assay buffer was seeded in all Wells of a 384 well polypropylene plate (Weidmann #23490-101). Then 10 μl of antibodies diluted in assay buffer (double concentrated), at a start concentration of 100 μg/ml, serially diluted 1:4 were added to the plate. After 90 minutes incubation at 4° C., 60 μl assay buffer was added followed by a centrifuge step (330×g, 5 min) and an aspirating step (BioTek washer 405H) where 60 μl of supernatant were discarded. 20 μl of detection antibody (Alpaca anti rabbit IgG Chromotek #srbAF647-1) diluted in assay buffer (double concentrated) to a final concentration of 0.5 μg/ml was added to all Wells followed by 1 hour incubation time at room temperature. The cells were then subjected to two washing steps with 40 μl and 60 μl assay buffer as described above and then resuspended in 20 μl assay buffer. Cell binding was measured on an iQue Screener Plus high throughput FACS device from Sartorius/Intellicyt.

Test [2] deals with T2, human CEACAM1 (human, UniProt P13688 35-526).
T2 construct: whole, on cells; also called CHO-CEACAM1
T2 sequence (looked up): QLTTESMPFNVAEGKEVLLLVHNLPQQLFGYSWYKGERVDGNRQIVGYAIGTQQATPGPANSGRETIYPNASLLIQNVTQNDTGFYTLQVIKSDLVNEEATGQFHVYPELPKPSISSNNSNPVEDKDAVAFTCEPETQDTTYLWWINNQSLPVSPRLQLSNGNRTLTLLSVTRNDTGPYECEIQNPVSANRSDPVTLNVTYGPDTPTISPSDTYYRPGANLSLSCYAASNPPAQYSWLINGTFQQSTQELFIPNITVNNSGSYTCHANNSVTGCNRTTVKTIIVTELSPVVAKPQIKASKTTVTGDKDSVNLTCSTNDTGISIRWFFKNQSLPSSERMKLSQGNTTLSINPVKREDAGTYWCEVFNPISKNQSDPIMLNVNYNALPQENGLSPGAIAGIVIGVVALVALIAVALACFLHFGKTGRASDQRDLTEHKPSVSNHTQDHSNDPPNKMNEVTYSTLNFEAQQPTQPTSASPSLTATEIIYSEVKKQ
The experiment in a line: FACS on CHO cells overexpressing human CEACAM1. As to the method:
(§1) Viability of CHO-CEACAM1 (CHO cells overexpressing human CEACAM1) and CHO-CEACAM6 (CHO cells overexpressing human CEACAM6) cells was checked. Then 100 μl of re-suspended target cells were seeded into a U-bottom plate (100′000 cells/well). The antibodies were diluted in FACS buffer. The plates were centrifuged for 4 min at 400×g and supernatant was removed. Then 25 µl/well of the diluted antibodies were added to the cells. The cells were incubated for 45 min at 4° C. After the incubation, cells were washed twice and 25 μl/well of diluted (1/100 in FACS buffer) PE anti-human Fc secondary antibody (Jackson Immuno Research, #109-116-170) or the directly labeled CD66 antibody (Clone B1.1/CD66, BD Bioscience, #551480) was added to the cells. The cells were incubated for 45 min at 4° C. After the incubation, cells were washed twice. Then cells were re-suspended in 150 μl/well of FACS buffer. Cell binding was measured on the BD LSRFortessa Flow Cytometer, the same day.

Test [3] has as its target T3, human CEACAM6 (human, UniProt P40199 35-320).
T3 construct: whole, on cells; also called CHO-CEACAM6
T3 sequence (looked up): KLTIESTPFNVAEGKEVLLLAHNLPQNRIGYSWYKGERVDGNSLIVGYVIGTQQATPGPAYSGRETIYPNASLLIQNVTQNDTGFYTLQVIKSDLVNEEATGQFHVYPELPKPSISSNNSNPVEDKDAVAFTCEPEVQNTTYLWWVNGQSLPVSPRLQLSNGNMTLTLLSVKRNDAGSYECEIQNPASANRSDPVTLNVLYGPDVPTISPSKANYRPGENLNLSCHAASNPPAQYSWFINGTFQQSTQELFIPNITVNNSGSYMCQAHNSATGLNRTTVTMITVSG
Description: FACS on CHO cells overexpressing human CEACAM6. The protocol: as §1

B1: P1AI5016 (antibody, human IgG1, V domains shown)
VH: EVQLVESGGGLVQPGGSLRLSCAASGFNIKDTYMHWVRQAPGKGLEWVGRIDPANGNSKYADSVKGRFTISADTSKNTAYLQMNSLRAEDTAVYYCAPFGYYVSDYAMAYWGQGTTVTVSS
VL: EIVLTQSPATLSLSPGERATLSCRAGESVDIFGVGFLHWYQQKPGQAPRLLIYRGSNRATGIPARFSGSGSGTDFTLTISSLEPEDFAVYYCQQTVEYPYTFGQGTKLEIK
As a reminder, the EC50 is the concentration at which the effect is half-maximal. The low end stands for a more potent agent, the high end for a less potent agent. Molecule B1 returned an EC50 in test [1] of 0.588 µg/mL. In addition, the binding result in test [2] and in test [3] was “no binding” each time.

B2: P1AI5031 (antibody, human IgG1, V domains shown)
VH: EVQLVESGGGLVQPGGSLRLSCAASGFNIKDTYMHWVRQAPGKGLEWVGRIDPANGNSKYADSVKGRFTISADTSKNTAYLQMNSLRAEDTAVYYCAPFGYYVSDYAMAYWGQGTTVTVSS
VL: EIVLTQSPATLSLSPGERATLSCRAGESVDIFGVGFLHWYQQKPGQAPRLLIYRGSNRMTGIPARFSGSGSGTDFTLTISSLEPEDFAVYYCQQTNEDPYTFGQGTKLEIK
notes: also called 24_A55M
On to B2, for which the concentration giving a half-maximal response (EC50) in test [1] worked out at 2.42 µg/mL. Also, the binding result in test [2] and in test [3] was “no binding” each time.

B3: P1AI5018 (antibody, human IgG1, V domains shown)
VH: EVQLVESGGGLVQPGGSLRLSCAASGFNIKDTYMHWVRQAPGKGLEWVGRIDPANGNSKYADSVKGRFTISADTSKNTAYLQMNSLRAEDTAVYYCAPFGYYVSDYAMAYWGQGTTVTVSS
VL: EIVLTQSPATLSLSPGERATLSCRAGESVDIFGVGFLHWYQQKPGQAPRLLIYRGSNRATGIPARFSGSGSGTDFTLTISSLEPEDFAVYYCQQTTEYPYTFGQGTKLEIK
Take B3: the response in test [1] was half-maximal at 0.65 µg/mL (EC50). Moreover, the binding result in test [2] and in test [3] was “no binding” in each case.

B4: P1AI5017 (antibody, human IgG1, V domains shown)
VH: EVQLVESGGGLVQPGGSLRLSCAASGFNIKDTYMHWVRQAPGKGLEWVGRIDPANGNSKYADSVKGRFTISADTSKNTAYLQMNSLRAEDTAVYYCAPFGYYVSDYAMAYWGQGTTVTVSS
VL: EIVLTQSPATLSLSPGERATLSCRAGESVDIFGVGFLHWYQQKPGQAPRLLIYRGSNRATGIPARFSGSGSGTDFTLTISSLEPEDFAVYYCQQTSEYPYTFGQGTKLEIK
For the molecule B4, the midpoint of the response in test [1], the EC50, lay at 0.762 µg/mL. Moreover, the binding result in test [2] and in test [3] was “no binding” throughout.

For the origin of these results see patent US20260071002A1 (Hoffmann-La Roche, published 2026).
